The target in the assay is CV-1A1 Fv-clasp (UniProt Q13043). Kind of assay: ELISA; sandwich ELISA: CV-1A1 Fv-clasp or scFv (0.7 µM in 50 mM carbonate buffer pH 9.6) coated on high-binding microplates, VLPs added in twofold serial dilutions, 37°C 2 h, detected with rabbit anti-VLP antisera; data fit to the Michaelis-Menten equation, Km taken as Kd (affinity or avidity); concentration counted as VP1. Background: ELISA stands for enzyme-linked immunosorbent assay.

“GI.4 Chiba virus-like particles (VP1 major capsid protein of the norovirus GI.4 Chiba strain) (complex)” showed a Kd of 3.77 nM.

(Values after PMC11092324.)
